From patent US20030170230A1 (published 2003)

Target: tetanus toxoid (UniProt P04958 2-1315)
Experiment: ELISA

B1: Sample C: protein from vectors pG31020, pG31030 and pG31027, consisting of FvL-AHECa, FvH-AHECb and ubiquitin-AHECc with a disulfide bridge between AHECa and … (other)
VL: MDIVMTQSQKFMSTSVGDRVSVTCKASQNVGASVAWYQQKPGQSPKILIYSASYRYSGVPDRFTGSGSGTDFTLTISNVQSEDLAEYFCQQYNGYPLTFGAGTKLELRTSDSLRLQQLFRDCEDEETWIREKEPIAASTAMDIGINSDPNSSSVDKLAAALEHHHHHH
VH: MGSGIEGRMASEVQLQQSGPELVKPGASVKMSCKASGYTFTNYIMYWVTQRPGQGLEWIGYIHPYNDDTKYNEKFKDKATLTSDRSSRTAYMELSSLTSEDSAVYYCARKKANFGYGPWFAYWGQGTLVTVSARTKHQALQAEIAGHEPRIKACTQKGNAMVEESLEHHHHHH
chain: not shown
Q: With B1 as the binder, how does the Ka read?
A: The Ka was 4.3e+08 M⁻¹.
